Patent US20160264662A1 (US Dept. of Health and Human Services, published 2016)

Target: T1, human TEM8 (hTEM8) expressed on CHO or 293 cells (human, UniProt Q9H6X2 33-564)
T1 construct: also called CHO TEM8
Experiment: cell-based ELISA-type titration of m825-MMAE on CHO cells overexpressing TEM8, with TEM8-negative CHO cells as control; absorbance at 450 nm against Log (ng/well)

T1 sequence (Q9H6X2 33-564 limits assumed): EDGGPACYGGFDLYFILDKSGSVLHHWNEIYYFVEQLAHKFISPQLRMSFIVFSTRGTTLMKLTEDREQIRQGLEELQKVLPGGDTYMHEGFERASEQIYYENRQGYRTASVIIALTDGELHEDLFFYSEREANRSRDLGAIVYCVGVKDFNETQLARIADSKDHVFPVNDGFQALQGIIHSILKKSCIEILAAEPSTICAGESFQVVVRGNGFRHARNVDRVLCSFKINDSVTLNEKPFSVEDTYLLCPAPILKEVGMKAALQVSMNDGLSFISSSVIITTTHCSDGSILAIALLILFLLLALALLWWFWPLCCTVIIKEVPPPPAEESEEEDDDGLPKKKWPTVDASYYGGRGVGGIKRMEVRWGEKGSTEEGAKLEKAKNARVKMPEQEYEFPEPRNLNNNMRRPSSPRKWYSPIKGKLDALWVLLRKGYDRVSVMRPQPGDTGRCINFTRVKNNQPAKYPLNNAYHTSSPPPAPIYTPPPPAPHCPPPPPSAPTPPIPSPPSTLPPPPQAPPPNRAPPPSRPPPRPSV

B1: m825-MMAE conjugate (m825 antibody in human IgG1 format conjugated to MMAE) (other)
VH: QVQLVQSGAEVKKPGTSVKVSCKVPGYTFSSYAISWVRQAPGQGLEWMGGIIPIFGTTNYAQKFQGRVTITGEESTSTVYMELSSLRSEDTAVYYCARDTDYMFDYWGQGTLVTVSS
VL: SSELTQDPVVSVALGETVSITCQGDNLRDFYASWYQQKPGQAPLLVMYGKNRRPSGIPDRFSGSTSGNTLSLTITGAQAEDEADYYCSSRDNSKHVVFGGGTKVTVL
modifications: MMAE with stretcher unit, Val-Cit peptide cleavage site and spacer, attached to thiol groups formed by partial reduction of inter-chain disulfide bonds (positions not stated)
notes: also called anti-TEM8-MMAE
EC50 (read off the curve): ~2 ng/well
